How the values were obtained:
Test in all cases: cell-based or functional assay
[1] = target: H1N1 circulating viruses (n=18) and vaccines strains (n=3)
[2] = target: H3N2 circulating viruses (n=30) and vaccines strains (n=4)
[3] = target: all H3N2 and H1N1 circulating strains and vaccines strains (n=55 viruses)

B1: VIS410 (antibody, V domains shown)
VH: QVQLLETGGGLVKPGQSLKLSCAASGFTFTSYAMHWVRQPPGKGLEWVAVVSYDGNYKYYADSVQGRFTISRDNSKNTLYLQMNSLRAEDTAVYYCAKDSRLRSLLYFEWLSQGYFNPWGQGTTLTVSS
VL: DIQMTQSPSSLSASVGDRVTITCRSSQSITFDYKNYLAWYQQKPGKAPKLLIYWGSYLESGVPSRFSGSGSGTDFTLTISSLQPEDFATYYCQQHYRTPPSFGQGTKVEIK
Mean IC50, phenotypic IC50 assay [1]: 0.6 µg/mL | Mean IC50, phenotypic IC50 assay [2]: 1.3 µg/mL | Median IC50, phenotypic IC50 assay [3]: 0.9 µg/mL
